Experimental data as given in patent US20250339569A1 (3B PHARMACEUTICALS, published 2025).
Starred links: 1 amine or outer side, 2 acyl side, 3 side chain; linkers in the order of their positions; H or OH if unused. Positions of bridges follow the written chain, without caps; N, C: chain ends. Non-standard residues stand in square brackets, D forms with d. mXylylene = c1cc(C[*:1])cc(C[*:2])c1; βAla = NCCC(=O)O; Sar = CNCC(=O)O

B1: 3BP-3055 (peptide)
peptide: Ac-VYCEGDWATWQC-NH2
modifications: linker 3-12 via mXylylene
SMILES: CC(=O)N[C@H](C(=O)N[C@@H](Cc1ccc(O)cc1)C(=O)N[C@H]1CSCc2cccc(c2)CSC[C@@H](C(N)=O)NC(=O)[C@H](CCC(N)=O)NC(=O)[C@H](Cc2c[nH]c3ccccc23)NC(=O)[C@H]([C@@H](C)O)NC(=O)[C@H](C)NC(=O)[C@H](Cc2c[nH]c3ccccc23)NC(=O)[C@H](CC(=O)O)NC(=O)CNC(=O)[C@H](CCC(=O)O)NC1=O)C(C)C
B2: 3BP-3309 (peptide)
peptide: Ac-VYCE[Sar]DWL[dA]WQC-NH2
modifications: linker 3-12 via mXylylene
SMILES: CC(=O)N[C@H](C(=O)N[C@@H](Cc1ccc(O)cc1)C(=O)N[C@H]1CSCc2cccc(c2)CSC[C@@H](C(N)=O)NC(=O)[C@H](CCC(N)=O)NC(=O)[C@H](Cc2c[nH]c3ccccc23)NC(=O)[C@@H](C)NC(=O)[C@H](CC(C)C)NC(=O)[C@H](Cc2c[nH]c3ccccc23)NC(=O)[C@H](CC(=O)O)NC(=O)CN(C)C(=O)[C@H](CCC(=O)O)NC1=O)C(C)C
notes: also called Ac-Val-Tyr-[Cys(3MeBn)-Glu-Nmg-Asp-Trp-Leu-ala-Trp-Gln-Cys]-NH2
B3: 3BP-3604 (peptide)
peptide: Ac-VY[dC][βAla]WLTWSC-NH2
modifications: linker 3-10 via mXylylene
SMILES: CC(=O)N[C@H](C(=O)N[C@@H](Cc1ccc(O)cc1)C(=O)N[C@@H]1CSCc2cccc(c2)CSC[C@@H](C(N)=O)NC(=O)[C@H](CO)NC(=O)[C@H](Cc2c[nH]c3ccccc23)NC(=O)[C@H]([C@@H](C)O)NC(=O)[C@H](CC(C)C)NC(=O)[C@H](Cc2c[nH]c3ccccc23)NC(=O)CCNC1=O)C(C)C
notes: also called Ac-Val-Tyr-[cys(3mebn)-Bal-Trp-Leu-Thr-Trp-Ser-Cys]-NH2
B4: 3BP-2836 (peptide)
peptide: Ac-MVYCEGDWLTWQC-NH2
modifications: linker 4-13 via mXylylene
SMILES: CSCC[C@H](NC(C)=O)C(=O)N[C@H](C(=O)N[C@@H](Cc1ccc(O)cc1)C(=O)N[C@H]1CSCc2cccc(c2)CSC[C@@H](C(N)=O)NC(=O)[C@H](CCC(N)=O)NC(=O)[C@H](Cc2c[nH]c3ccccc23)NC(=O)[C@H]([C@@H](C)O)NC(=O)[C@H](CC(C)C)NC(=O)[C@H](Cc2c[nH]c3ccccc23)NC(=O)[C@H](CC(=O)O)NC(=O)CNC(=O)[C@H](CCC(=O)O)NC1=O)C(C)C
B5: 3BP-3044 (peptide)
peptide: Ac-V[dY]CEGDWLTWQC-NH2
modifications: linker 3-12 via mXylylene
SMILES: CC(=O)N[C@H](C(=O)N[C@H](Cc1ccc(O)cc1)C(=O)N[C@H]1CSCc2cccc(c2)CSC[C@@H](C(N)=O)NC(=O)[C@H](CCC(N)=O)NC(=O)[C@H](Cc2c[nH]c3ccccc23)NC(=O)[C@H]([C@@H](C)O)NC(=O)[C@H](CC(C)C)NC(=O)[C@H](Cc2c[nH]c3ccccc23)NC(=O)[C@H](CC(=O)O)NC(=O)CNC(=O)[C@H](CCC(=O)O)NC1=O)C(C)C
B6: 3BP-3045 (peptide)
peptide: Ac-VYC[dE]GDWLTWQC-NH2
modifications: linker 3-12 via mXylylene
SMILES: CC(=O)N[C@H](C(=O)N[C@@H](Cc1ccc(O)cc1)C(=O)N[C@H]1CSCc2cccc(c2)CSC[C@@H](C(N)=O)NC(=O)[C@H](CCC(N)=O)NC(=O)[C@H](Cc2c[nH]c3ccccc23)NC(=O)[C@H]([C@@H](C)O)NC(=O)[C@H](CC(C)C)NC(=O)[C@H](Cc2c[nH]c3ccccc23)NC(=O)[C@H](CC(=O)O)NC(=O)CNC(=O)[C@@H](CCC(=O)O)NC1=O)C(C)C
B7: 3BP-3047 (peptide)
peptide: Ac-VYCEG[dD]WLTWQC-NH2
modifications: linker 3-12 via mXylylene
SMILES: CC(=O)N[C@H](C(=O)N[C@@H](Cc1ccc(O)cc1)C(=O)N[C@H]1CSCc2cccc(c2)CSC[C@@H](C(N)=O)NC(=O)[C@H](CCC(N)=O)NC(=O)[C@H](Cc2c[nH]c3ccccc23)NC(=O)[C@H]([C@@H](C)O)NC(=O)[C@H](CC(C)C)NC(=O)[C@H](Cc2c[nH]c3ccccc23)NC(=O)[C@@H](CC(=O)O)NC(=O)CNC(=O)[C@H](CCC(=O)O)NC1=O)C(C)C
notes: also called Ac-Val-Tyr-[Cys(3MeBn)-Glu-Gly-asp-Trp-Leu-Thr-Trp-Gln-Cys]-NH2

Target: human carbonic anhydrase 9 (CAIX) (human, UniProt Q16790 38-459)
Experiment: FACS competition on HT-29 cells against tracer 3BP-2776; pIC50 category C = pIC50 6.1-7.0
Protocol: CAIX-expressing human HT-29 colorectal cancer cells (DSMZ, RRID: CVCL_0320) were cultured in McCoys's 5A modified medium (Biochrom, #F1015) including 10% fetal calf serum (FCS), 2 mM L-glutamine, 100 U/ml penicillin and 100 μg/mL streptomycin. Cells were detached with Accutase (Biolegend, #423201) and washed in FACS buffer (PBS including 1% FCS). Cells were diluted in FACS buffer to a final concentration of 500.000 cells per ml. 200 μL of the cell suspension were transferred to a u-shaped non-binding 96-well plate (Greiner) and cells were washed in ice-cold FACS buffer.
When biotinylated compounds were used an additional incubation step with 1 μg/mL APC-Streptavidin (Miltenyi; #130-106-791) in 50 μL FACS buffer for 30 minutes on ice was performed.
Cells were washed twice with ice-cold FACS buffer and analyzed in an Attune NxT flow cytometer (Thermo Fisher). Median fluorescence intensities (MFI) of the APC/Cy5-channel were calculated by Attune NxT software.

pIC50, 6.1 to 7 pic50:
B1
B2
B3
B4
B5
B6
B7
